T1: human NMI (N-myc Interacting protein) (human, UniProt Q13287 1-307, limits assumed)
T1 construct: Immunogen and ELISA coating antigen; also called hNMI; antigen 1
T1 sequence (looked up): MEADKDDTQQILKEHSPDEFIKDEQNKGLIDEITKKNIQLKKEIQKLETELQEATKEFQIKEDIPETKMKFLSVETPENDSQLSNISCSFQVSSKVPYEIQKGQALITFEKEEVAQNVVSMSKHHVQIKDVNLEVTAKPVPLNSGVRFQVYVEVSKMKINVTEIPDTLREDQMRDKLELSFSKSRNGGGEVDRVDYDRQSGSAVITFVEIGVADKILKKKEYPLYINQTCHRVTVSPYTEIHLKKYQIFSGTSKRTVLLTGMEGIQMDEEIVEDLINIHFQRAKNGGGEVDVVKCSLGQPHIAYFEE

B1: 94C4 (antibody, V domains shown)
VH: QSLEESGGGLVQPEGSLTLTCKASGFDFSSNAMCWVRQAPGKGLEWIACISSASSGSSGSTYYASWAKGRFTISKTSSTTVTLQMTSLTAADMATYFCARDGYDLWGPGTLVTVSS
VL: QVLTQTPSSVSAAVGGTVTISCQSSPSVYNNYLSWFQQKPGQSPKLLIYRVSTLASGVPSRFSGSGSGTQFTLTISGVQCDDAATYYCAGGYDSASDTYVFGGGTEVVVK
notes: Rabbit monoclonal antibody; also called 94C4-1; 94C4-1-biotin (biotin-labelled form)
B2: 98G10 (antibody, V domains shown)
VH: QEQLEESGGDLVKPEGSLTLTCTASGFSFSASYWICWVRQAPGKGLEWIACIYGGSSGSAYYASWAKGRFTISKTSSTTVTLQMTSLTAADTATYFCARAGYYNYGSAGDIYPSSFKLWGPGTLVTVSS
VL: DIVMTQTPASVEAAVGGTVTINCQASQSISTALAWYQQKPGQPPKLLIYTASKVASGVPSRFSGSGSGTQFTLTISDLECADAATYYCQNYYYSSSSITFGGGTEVVVK
notes: Rabbit monoclonal antibody; also called 98G10-1; 98G10-1-biotin (biotin-labelled form)

Assays:
[1] = target: T1, human NMI (N-myc Interacting protein); test: I-ELISA, hNMI coated 1 ug/mL; antibody 625 ng/mL
[2] = target: T1, human NMI (N-myc Interacting protein); test: indirect ELISA, human NMI coated; supernatant 1/3
[3] = target: T1, human NMI (N-myc Interacting protein); test: indirect ELISA, human NMI coated; supernatant 1/9
[4] = target: T1, human NMI (N-myc Interacting protein); test: I-ELISA, hNMI coated 1 ug/mL; antibody 1250 ng/mL
[5] = target: T1, human NMI (N-myc Interacting protein); test: I-ELISA, hNMI coated 1 ug/mL; antibody 2500 ng/mL
[6] = target: T1, human NMI (N-myc Interacting protein); test: indirect ELISA, human NMI coated; supernatant 1/27
[7] = target: T1, human NMI (N-myc Interacting protein); test: indirect ELISA, human NMI coated; supernatant 1/81
[8] = target: T1, human NMI (N-myc Interacting protein); test: indirect ELISA, human NMI coated (repeats Table 1)
[9] = target: T1, human NMI (N-myc Interacting protein); test: I-ELISA, hNMI coated 1 ug/mL; antibody 312.5 ng/mL
[10] = target: T1, human NMI (N-myc Interacting protein); test: indirect ELISA, human NMI coated; supernatant 1/243
[11] = target: T1, human NMI (N-myc Interacting protein); test: indirect ELISA, human NMI coated; supernatant 1/729
[12] = target: T1, human NMI (N-myc Interacting protein); test: I-ELISA, hNMI coated 1 ug/mL; antibody 156.25 ng/mL
[13] = target: T1, human NMI (N-myc Interacting protein); test: I-ELISA, hNMI coated 1 ug/mL; antibody 78.125 ng/mL
[14] = target: T1, human NMI (N-myc Interacting protein); test: indirect ELISA, human NMI coated; supernatant 1/2187
[15] = target: T1, human NMI (N-myc Interacting protein); test: indirect ELISA, human NMI coated; supernatant 1/6561
[16] = target: T1, human NMI (N-myc Interacting protein); test: I-ELISA, hNMI coated 1 ug/mL; antibody 39.0625 ng/mL
[17] = target: T1, human NMI (N-myc Interacting protein); test: indirect ELISA, human NMI coated; supernatant 1/19683
[18] = target: T1, human NMI (N-myc Interacting protein); test: indirect ELISA, human NMI coated; supernatant 1/59049
[19] = target: T1, human NMI (N-myc Interacting protein); test: I-ELISA, hNMI coated 1 ug/mL; antibody 19.53125 ng/mL
[20] = target: T1, human NMI (N-myc Interacting protein); test: I-ELISA, hNMI coated 1 ug/mL; antibody 9.765625 ng/mL
[21] = target: T1, human NMI (N-myc Interacting protein); test: I-ELISA, hNMI coated 1 ug/mL; antibody 1.2207031 ng/mL
[22] = target: T1, human NMI (N-myc Interacting protein); test: I-ELISA, hNMI coated 1 ug/mL; antibody 2.4414063 ng/mL
[23] = target: T1, human NMI (N-myc Interacting protein); test: I-ELISA, hNMI coated 1 ug/mL; antibody 4.8828125 ng/mL
[24] = target: T1, human NMI (N-myc Interacting protein); test: indirect ELISA, human NMI coated; supernatant undiluted
[25] = target: T1, human NMI (N-myc Interacting protein); test: indirect ELISA, human NMI coated; supernatant dilution series
[26] = target: T1, human NMI (N-myc Interacting protein); test: I-ELISA, hNMI coated; lower end of the group's range, tied to 94C4 by Table 17
[27] = target: T1, human NMI (N-myc Interacting protein); test: sandwich ELISA; coating antibody 2.5 ug/mL, detection 94C4-biotin 0.5 ug/mL
[28] = target: T1, human NMI (N-myc Interacting protein); test: I-ELISA, hNMI coated; upper end of the group's range, tied to 98G10 by Table 17

Row | Binder | OD450 [1] [OD450] | ELISA OD [2] [OD] | ELISA OD [3] [OD] | OD450 [4] [OD450] | OD450 [5] [OD450] | ELISA OD [6] [OD] | ELISA OD [7] [OD] | EC50 [8] [ng/mL] | OD450 [9] [OD450] | ELISA OD [10] [OD] | ELISA OD [11] [OD] | OD450 [12] [OD450] | OD450 [13] [OD450] | ELISA OD [14] [OD] | ELISA OD [15] [OD] | OD450 [16] [OD450] | ELISA OD [17] [OD] | ELISA OD [18] [OD] | OD450 [19] [OD450] | OD450 [20] [OD450] | also measured
1 | B1 | 2.19 | 3.5 | 3.58 | 2.19 | 2.17 | 3.47 | 3.43 | 0.189 | 2.1 | 3.29 | 2.98 | 1.93 | 1.64 | 2.48 | 2.15 | 1.22 | 1.28 | 0.585 | 0.833 | 0.482 | OD450 [21]: 0.092 OD450; OD450 [22]: 0.142 OD450; OD450 [23]: 0.262 OD450; ELISA OD [24]: 3.46 OD; EC50 [25]: 0.189 ng/mL; EC50 [26]: 30 ng/mL
2 | B2 | 2.08 | 3.45 | 3.39 | 2.15 | 2.17 | 3.32 | 3.29 | 1.22 | 1.97 | 2.97 | 2.48 | 1.71 | 1.18 | 1.72 | 1.07 | 0.67 | 0.528 | 0.237 | 0.41 | 0.217 | OD450 [21]: 0.065 OD450; OD450 [22]: 0.081 OD450; OD450 [23]: 0.115 OD450; ELISA OD [24]: 3.45 OD; EC50 [25]: 1.22 ng/mL; detection limit (sensitivity) [27]: 60 pg/mL; EC50 [28]: 70 ng/mL
